Measured values reported in patent US20250090676A1 (SUTRO BIOPHARMA, published 2025).

How the values were obtained:
[1] = target: T1, cynomolgus monkey folate receptor alpha (cynomolgus monkey, UniProt P15328 25-234 (human entry)); assay: FACS, CHO-cFOLR1 cells
T1 construct: Expressed on the surface of stably transfected CHO cells; also called cyno FolR1; CHO-cyno FolR1

[2] = target: T2, murine folate receptor alpha (mouse, UniProt P35846 25-232); assay: FACS, CHO-mFOLR1 cells;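 further: flow cytometry binding of serially diluted test antibodies to transfected CHO cells on ice, mean fluorescence intensity, parental CHO cells give background, Kd from one-site specific binding fit with Hill slope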
T2 construct: Expressed on the surface of stably transfected CHO cells; also called mouse FolR1; CHO-mouse FolR1
Procedure: (§1) CHO cells were transfected to stably express human (CHO-hFOLR1), cynomolgus (CHO-cFOLR1), or mouse (CHO-mFOLR1) target molecule FOLR1 on the cell surface. Parental CHO cells were used as a negative control to determine background binding levels. Parental CHO and stably transfected CHO-hFOLR1, CHO-cFOLR1, and CHO-mFOLR1 cells were cultured in Ham's F-12: high glucose DMEM (50:50) (Corning, Cellgro-Mediatech) supplemented with 10% heat-inactivated fetal bovine serum (Corning, Cellgro-Mediatech), 1% Penicillin/Streptomycin (Corning, Cellgro-Mediatech) and 2 mmol/L-glutamax (Life Technology).
(§2) A mixture of fluoresecent-labeled parental CHO cells and unlabeled CHO-hFOLRlcells were prepared as follows. Parental CHO cells were washed twice in PBS and incubated in PBS containing with 1 nM CellTrace™ Oregon Green488® (Life Technologies) at 37° C. for 30 minutes. Labeled parental CHO cells were then washed 2× with Ham's F-12 media and 2× with FACS buffer (PBS with 1% bovine serum albumin). Unlabeled CHO-hFOLR1 cells were similarly washed and prepared. Labeled parental CHO and unlabeled CHO-hFOLR1 cells were combined at 1:1 ratio and seeded at 50 μL per well (200,000 cells per well) in 96 well polypropylene plates. Cells were mixed with 50 μL of test antibodies (i.e., anti-FOLR1 variants) serially diluted in FACS buffer and incubated on ice for 60 mins. […] Data were analyzed using FlowJo® software (FlowJo, LLC; Ashland, OR) to determine mean fluorescence intensities. Binding constants were calculated using the statistical software, GraphPad Prism (GraphPad Software; La Jolla, CA) using the nonlinear regression equation, one site-specific binding with Hill slope. Secondary antibody alone was used as a control, in addition to measuring non-specific antibody binding to CHO parental cells.

[3] = target: T3, human folate receptor alpha (hFOLR1) (human, UniProt P15328 25-234); assay: FACS, CHO-hFOLR1 cells;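 further: flow cytometry of serially diluted antibodies binding CHO cells stably expressing the receptor, 60 min on ice, mixed with dye-tagged parental CHO as background control, one-site specific fit with Hill slope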
T3 construct: endogenous on FOLR1-positive KB and Igrov1 cells (cell killing); also called human FolR1; FolRα
Procedure: as §1, §2

[4] = target: T3, human folate receptor alpha (hFOLR1); assay: cell-based or functional assay

T2 sequence (P35846 25-232 limits assumed): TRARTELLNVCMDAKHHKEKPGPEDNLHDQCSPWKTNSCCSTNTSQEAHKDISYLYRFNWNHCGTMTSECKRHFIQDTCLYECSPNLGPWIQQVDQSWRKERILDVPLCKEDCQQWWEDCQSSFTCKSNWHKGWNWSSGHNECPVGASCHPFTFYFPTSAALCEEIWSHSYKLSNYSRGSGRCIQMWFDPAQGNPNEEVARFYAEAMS
T3 sequence (P15328 25-234 limits assumed): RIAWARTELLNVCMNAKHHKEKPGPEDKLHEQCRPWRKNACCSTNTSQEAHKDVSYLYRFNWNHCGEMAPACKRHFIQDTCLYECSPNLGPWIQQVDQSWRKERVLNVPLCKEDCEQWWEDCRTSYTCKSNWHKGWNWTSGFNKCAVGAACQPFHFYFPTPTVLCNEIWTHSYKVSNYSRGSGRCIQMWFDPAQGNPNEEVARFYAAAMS
T1 sequence (P15328 other isoform, or with tags, fused parts or gaps limits assumed): as the sequence (P15328 25-234 limits assumed) above, with I2T, W4R, R37K, Q117R, A146P, H171Y counted along it

Binder	Bmax (MFI) [1] [MFI]	Kd [1] [nM]	Bmax (MFI) [2] [MFI]	Kd [2] [nM]	Bmax (MFI) [3] [MFI]	Kd [3] [nM]	Igrov, 2° Antibody Cell Killing, Nb-SC239: EC50 [4] [nM]	Igrov, 2° Antibody Cell Killing, Nb-SC239: Span [4] [%]	KB, 2° Antibody Cell Killing, Nb-239: EC50 [4] [nM]	KB, 2° Antibody Cell Killing, Nb-239: Span [4] [%]	binding result [2]
SRP1848-B11 (antibody, V domains shown, HC variant paired with trastuzumab LC, cell-free expressed, HIS- and FLAG-tagged; also called Antibody 17) VH: EVQLVESGGGLVQPGGSLRLSCAASGFNIGNNSIHWVRQAPGKGLEWVGDISPIDGFTDYADSVKGRFTISADTSKNTAYLQMNSLRAEDTAVYYCARGSWSWRAGYGYYLDYWGQGTLVTVSS VL: not shown	22900	0.34	1630	3.9	28400	0.56	0.026	74	0.058	93	
SRP1848-D09 (antibody, V domains shown, HC variant paired with trastuzumab LC, cell-free expressed, HIS- and FLAG-tagged; also called Antibody 29) VH: EVQLVESGGGLVQPGGSLRLSCAASGFNISNYYIHWVRQAPGKGLEWVGGISPNDGYTDYADSVKGRFTISADTSKNTAYLQMNSLRAEDTAVYYCARGSWSWRHGYGYYLDYWGQGTLVTVSS VL: not shown	21300	0.65			25000	0.46	0.023	70	0.042	91	no binding
SRP1848-C04 (antibody, V domains shown, HC variant paired with trastuzumab LC, cell-free expressed, HIS- and FLAG-tagged; also called Antibody 20) VH: EVQLVESGGGLVQPGGSLRLSCAASGFNIRHYSIHWVRQAPGKGLEWVGEIYPGPGNTDYADSVKGRFTISADTSKNTAYLQMNSLRAEDTAVYYCARGSLSWRAGYGYYLDYWGQGTLVTVSS VL: not shown	22000	0.86	2510	62	26300	0.44	0.016	68	0.006	94	
SRP1848-E01 (antibody, V domains shown, HC variant paired with trastuzumab LC, cell-free expressed, HIS- and FLAG-tagged; also called Antibody 31) VH: EVQLVESGGGLVQPGGSLRLSCAASGFNITNKYIHWVRQAPGKGLEWVGGITPFDGFTDYADSVKGRFTISADTSKNTAYLQMNSLRAEDTAVYYCARGSWSWPAGYGYYQDYWGQGTLVTVSS VL: not shown	22400	0.96			26400	1.01	0.029	72	0.088	92	no binding
SRP1848-C10 (antibody, V domains shown, HC variant paired with trastuzumab LC, cell-free expressed, HIS- and FLAG-tagged; also called Antibody 23) VH: EVQLVESGGGLVQPGGSLRLSCAASGFNIRTYYIHWVRQAPGKGLEWVGGISPIDGYTDYADSVKGRFTISADTSKNTAYLQMNSLRAEDTAVYYCARGSWSWPAGYGYYLDYWGQGTLVTVSS VL: not shown	16000	0.27	2330	5.6	27500	0.91	0.036	75	0.057	96	
SRP1848-C03 (antibody, V domains shown, HC variant paired with trastuzumab LC, cell-free expressed, HIS- and FLAG-tagged; also called Antibody 19) VH: EVQLVESGGGLVQPGGSLRLSCAASGFNIGVYSIHWVRQAPGKGLEWVGEIYPIDGNTDYADSVKGRFTISADTSKNTAYLQMNSLRAEDTAVYYCARGSWAWRSGYSYYLDYWGQGTLVTVSS VL: not shown	25100	0.5	3310	3	29100	0.51	0.035	72	0.074	93	
SRP1848-D02 (antibody, V domains shown, HC variant paired with trastuzumab LC, cell-free expressed, HIS- and FLAG-tagged; also called Antibody 24) VH: EVQLVESGGGLVQPGGSLRLSCAASGFNISHNYIHWVRQAPGKGLEWVGGITPQDGYTDYADSVKGRFTISADTSKNTAYLQMNRLRAEDTAVYYCARGAWSWRAGYGYYLDYWGQGTLVTVSS VL: not shown	28000	0.61	916	87	28800	0.6	0.027	71	0.034	93	
SRP1848-E05 (antibody, V domains shown, HC variant paired with trastuzumab LC, cell-free expressed, HIS- and FLAG-tagged; also called Antibody 34) VH: EVQLVESGGGLVQPGGSLRVSCAASGFNIGVYYIHWVRQAPGKGLEWVGGITPNDGYTDYADSVKGRFTISADTSKNTAYLQMNSLRAEDTAVYYCARGFWAWRSGYGYYLDYWGQGTLVTVSS VL: not shown	28200	0.55			27300	0.46	0.027	78	0.071	95	no binding
